The target in the assay is T1, human α4β7 integrin on cells (human, UniProt P13612 34-1032; P26010 20-798).
T1 construct: whole, on cells; also called α4β7 cell (Hu); RPMI8866 cells
The assay is described as follows: RPMI8866 cell adhesion to MAdCAM-1.

Bridge positions count the residues as written; N and C are the ends. Square brackets hold non-standard residues; d marks the D form. Ends that are not written are not given here. Phe(4-COOH) = N[C@@H](Cc1ccc(C(=O)O)cc1)C(=O)O; NMeR = CN[C@@H](CCCNC(=N)N)C(=O)O; NMeE = CN[C@@H](CCC(=O)O)C(=O)O; DIG = diglycolic acid (linker); Pen = CC(C)(S)[C@H](N)C(=O)O

B1: SEQ ID NO: 4 (peptide)
peptide: Ac-[dK]C[NMeR]SDTLCW[dK]-NH2
modifications: disulfide 2-8 (inferred); also: dimer linked by DIG, attachment not given here
The IC50 is the concentration that inhibits the measured activity by half. A high value points to weaker potency in that assay. B1: the IC50 was more than 10 nM.

B2: SEQ ID NO: 1 (peptide)
peptide: Ac-[Pen][NMeR]SDTL[Pen]W[βGlu][dK]-NH2
modifications: disulfide 1-7; not fully specified (residue 10); printed as (Ac Pen N-Me-R S D T L Pen W Beta-E k NH2)2 DIG; also: homodimer: two subunits joined by DIG linker
In turn, B2 yielded an IC50 of more than 50 nM.

B3: SEQ ID NO: 105 (peptide)
peptide: Ac-[Pen][NMeR]SDTL[Pen]W[Phe(4-COOH)][dK]-NH2
modifications: disulfide 1-7; not fully specified (residue 10); printed as (Ac Pen N-Me-R S D T L Pen W F(4-COOH) k NH2)2 DIG, disulfide Pen-Pen; also: homodimer: two subunits joined by DIG linker
B3 showed an IC50 of more than 50 nM.

B4: SEQ ID NO: 87 (peptide)
peptide: Ac-[Pen][NMeR]SDTL[Pen]WD[dK]-NH2
modifications: disulfide 1-7; not fully specified (residue 10); printed as (Ac Pen N-Me-R S D T L Pen W D k NH2)2 DIG, disulfide Pen-Pen; also: homodimer: two subunits linked by DIG via D-Lys10 side chain
B4 had an IC50 of more than 25 nM.

B5: SEQ ID NO: 70 (peptide)
peptide: Ac-[Pen][NMeR]SDTL[Pen]W[dE][dK]-NH2
modifications: disulfide 1-7; not fully specified (residue 10); printed as (Ac Pen N-Me-R S D T L Pen W e k NH2)2 IDA, disulfide Pen-Pen; also: homodimer via IDA linker
B5 registered an IC50 of more than 25 nM.

B6: SEQ ID NO: 31 (peptide)
peptide: Ac-[Pen][NMeR]SDTL[Pen]W[NMeE][dK]-NH2
modifications: disulfide 1-7; not fully specified (residue 10); printed as (Ac Pen N-Me-R S D T L Pen W N-Me-E k NH2)2 DIG, disulfide Pen-Pen; also: dimer, two subunits joined by DIG linker
In the case of B6, the IC50 is more than 50 nM.

B7: SEQ ID NO: 82 (peptide)
peptide: Ac-[Pen][NMeR]SDTL[Pen]WQ[dK]-NH2
modifications: disulfide 1-7; not fully specified (residue 10); printed as (Ac Pen N-Me-R S D T L Pen W Q k NH2)2 DIG, disulfide Pen-Pen; also: homodimer: two subunits linked by DIG via D-Lys10 side chain
As for B7, the 50% inhibitory concentration (IC50) is more than 50 nM.

B8: SEQ ID NO: 72 (peptide)
peptide: Ac-[Pen][NMeR]SDTL[Pen]W[dE][dK]-NH2
modifications: disulfide 1-7; not fully specified (residue 10); printed as (Ac Pen N-Me-R S D T L Pen W e k NH2)2 IDA PEG4 Biotine, disulfide Pen-Pen; also: homodimer: two subunits linked by IDA via D-Lys10 side chain, PEG4-Biotine on the linker
For the molecule B8, the IC50 is more than 25 nM.

B9: SEQ ID NO: 123 (peptide)
peptide: Ac-[Pen][NMeR]SDTL[Pen]Y[dE][dK]-NH2
modifications: disulfide 1-7; not fully specified (residue 10); printed as (Ac Pen N-Me-R S D T L Pen Y e k NH2)2 DIG, disulfide Pen-Pen; also: homodimer: two subunits joined by DIG linker
With B9, the IC50 is more than 50 nM.

B10: SEQ ID NO: 71 (peptide)
peptide: Ac-[Pen][NMeR]SDTL[Pen]W[dE][dK]-NH2
modifications: disulfide 1-7; not fully specified (residue 10); printed as (Ac Pen N-Me-R S D T L Pen W e k NH2)2 IDA Biotine, disulfide Pen-Pen; also: homodimer via IDA linker bearing biotin
The molecule B10 returned an IC50 of more than 25 nM.

B11: SEQ ID NO: 65 (peptide)
peptide: Ac-[Pen][NMeR]SDTL[Pen]WE[dK](Ac)
modifications: disulfide 1-7
Turning to B11, the IC50 was more than 10000 nM.

B12: SEQ ID NO: 110 (peptide)
peptide: Ac-[Pen][NMeR]SDTL[Pen]W[dW][dK]-NH2
modifications: disulfide 1-7; not fully specified (residue 10); printed as (Ac Pen N-Me-R S D T L Pen W w k NH2)2 DIG, disulfide Pen-Pen; also: homodimer: two subunits joined by DIG linker
For the molecule B12, the IC50 is more than 10 nM.

B13: SEQ ID NO: 25 (peptide)
peptide: Ac-[Pen][NMeR]SDTL[Pen]HE[dK]-NH2
modifications: disulfide 1-7; not fully specified (residue 10); printed as (Ac Pen N-Me-R S D T L Pen H E k NH2)2 DIG, disulfide Pen-Pen; also: dimer, two subunits joined by DIG linker
Consider B13, for which the IC50 is more than 10 nM.

B14: SEQ ID NO: 95 (peptide)
peptide: Ac-[Pen][NMeR]SDTL[Pen]WPK(DIG)-NH2
modifications: disulfide 1-7; also: homodimer (…)2 DIG: the two subunits are joined through the K10 NZ by the DIG linker
In turn, B14 had an IC50 of more than 100 nM.

B15: SEQ ID NO: 85 (peptide)
peptide: Ac-[Pen][NMeR]SDTL[Pen]WF[dK]-NH2
modifications: disulfide 1-7; not fully specified (residue 10); printed as (Ac Pen N-Me-R S D T L Pen W F k NH2)2 DIG, disulfide Pen-Pen; also: homodimer: two subunits linked by DIG via D-Lys10 side chain
Consider B15, for which the IC50 was not above 10 nM.

B16: SEQ ID NO: 94 (peptide)
peptide: Ac-[Pen][NMeR]SDTL[Pen]WP[dK](DIG)-NH2
modifications: disulfide 1-7; also: homodimer (…)2 DIG: the two subunits are joined through the K10 NZ by the DIG linker
Molecule B16 displayed an IC50 of more than 100 nM.

B17: SEQ ID NO: 104 (peptide)
peptide: Ac-[Pen][NMeR]SDTL[Pen]W[dH][dK]-NH2
modifications: disulfide 1-7; not fully specified (residue 10); printed as (Ac Pen N-Me-R S D T L Pen W h k NH2)2 DIG, disulfide Pen-Pen; also: homodimer: two subunits joined by DIG linker
With B17, the half-inhibitory concentration (IC50) was more than 100 nM.

B18: SEQ ID NO: 92 (peptide)
peptide: Ac-[Pen][NMeR]SDTL[Pen]W[dY][dK](DIG)-NH2
modifications: disulfide 1-7; also: homodimer (…)2 DIG: the two subunits are joined through the K10 NZ by the DIG linker
Take B18: the IC50 is more than 50 nM.

B19: SEQ ID NO: 83 (peptide)
peptide: Ac-[Pen][NMeR]SDTL[Pen]WN[dK]-NH2
modifications: disulfide 1-7; not fully specified (residue 10); printed as (Ac Pen N-Me-R S D T L Pen W N k NH2)2 DIG, disulfide Pen-Pen; also: homodimer: two subunits linked by DIG via D-Lys10 side chain
As to B19, the IC50 is more than 50 nM.

B20: SEQ ID NO: 124 (peptide)
peptide: Ac-[Pen][NMeR]SDTL[Pen]H[dE][dK]-NH2
modifications: disulfide 1-7; not fully specified (residue 10); printed as (Ac Pen N-Me-R S D T L Pen H e k NH2)2 DIG, disulfide Pen-Pen; also: homodimer: two subunits joined by DIG linker
In the case of B20, the IC50 is more than 100 nM.

B21: SEQ ID NO: 26 (peptide)
peptide: Ac-[Pen][NMeR]SDTL[Pen]HY[dK]-NH2
modifications: disulfide 1-7; not fully specified (residue 10); printed as (Ac Pen N-Me-R S D T L Pen H Y k NH2)2 DIG, disulfide Pen-Pen; also: dimer, two subunits joined by DIG linker
Molecule B21 returned an IC50 of more than 100 nM.

B22: SEQ ID NO: 96 (peptide)
peptide: Ac-[Pen][NMeR]SDTL[Pen]W[dP]K-NH2
modifications: disulfide 1-7; also: homodimer, two subunits linked by DIG at Lys10
B22 gave an IC50 of more than 50 nM.

B23: SEQ ID NO: 28 (peptide)
peptide: Ac-[Pen][NMeR]SDTL[Pen][dW]E[dK]-NH2
modifications: disulfide 1-7; not fully specified (residue 10); printed as (Ac Pen N-Me-R S D T L Pen w E k NH2)2 DIG, disulfide Pen-Pen; also: dimer, two subunits joined by DIG linker
For B23, the concentration for half-maximal inhibition (IC50) was more than 50 nM.

B24: SEQ ID NO: 91 (peptide)
peptide: Ac-[Pen][NMeR]SDTL[Pen]W[dF][dK]-NH2
modifications: disulfide 1-7; not fully specified (residue 10); printed as (Ac Pen N-Me-R S D T L Pen W f k NH2)2 DIG, disulfide Pen-Pen; also: homodimer via DIG linker
B24 yielded a half-inhibitory concentration (IC50) of more than 100 nM.

B25: SEQ ID NO: 66 (peptide)
peptide: Ac-[Pen][NMeR]SDTL[Pen]W[dE][dK](Ac)
modifications: disulfide 1-7
B25 gave an IC50 of more than 10000 nM.

For the origin of these results see patent US20220162261A1 (published 2022).
